Experiment: in vivo
Design: species or system mice
Settings: male, NODSCID 1L2RγKO, mouse, iv, total radioactivity

**Q.** Which results are given for `COc1ccc(CCCC(=O)NCC(=O)N[C@@H](CCCCNC(=O)CN2CCN(CC(=O)O)CCN(CC(=O)O)CCN(CC(=O)O)CC2)C(=O)NC[C@H]2CC[C@H](C(=O)N[C@@H](Cc3c4ccccc4cc4ccccc34)C(=O)NCCCC[C@H](NC(=O)N[C@@H](CCCC(=O)O)C(=O)O)C(=O)O)CC2)cc1` [177Lu-HTK03170, metal not drawn]?
**A.** tissue uptake at 1 h (Adrenal glands uptake): 3.34 ± 0.45 %ID/g; tissue uptake at 4 h (Adrenal glands uptake): 1.78 ± 0.45 %ID/g; tissue uptake at 24 h (Adrenal glands uptake): 0.5 ± 0.16 %ID/g; tissue uptake at 72 h (Adrenal glands uptake): 0.27 ± 0.11 %ID/g; tissue uptake at 120 h (Adrenal glands uptake): 0.22 ± 0.18 %ID/g; tissue uptake at 1 h (Blood uptake): 16.9 ± 1.97 %ID/g; tissue uptake at 4 h (Blood uptake): 8.34 ± 1.67 %ID/g; tissue uptake at 24 h (Blood uptake): 0.59 ± 0.13 %ID/g; tissue uptake at 72 h (Blood uptake): 0.06 ± 0.02 %ID/g; tissue uptake at 120 h (Blood uptake): 0.02 ± 0.01 %ID/g; tissue uptake at 1 h (Bone uptake): 0.89 ± 0.27 %ID/g; tissue uptake at 4 h (Bone uptake): 0.45 ± 0.13 %ID/g; tissue uptake at 24 h (Bone uptake): 0.06 ± 0.04 %ID/g; tissue uptake at 72 h (Bone uptake): 0.03 ± 0.02 %ID/g; tissue uptake at 120 h (Bone uptake): 0.02 ± 0.01 %ID/g; tissue uptake at 1 h (Brain uptake): 0.23 ± 0.04 %ID/g; tissue uptake at 4 h (Brain uptake): 0.13 ± 0.03 %ID/g; tissue uptake at 24 h (Brain uptake): 0.02 ± 0.01 %ID/g; tissue uptake at 72 h (Brain uptake): 0.01 %ID/g; tissue uptake at 1 h (Fat uptake): 1.38 ± 0.45 %ID/g; tissue uptake at 4 h (Fat uptake): 0.6 ± 0.13 %ID/g; tissue uptake at 24 h (Fat uptake): 0.12 ± 0.04 %ID/g; tissue uptake at 72 h (Fat uptake): 0.04 ± 0.02 %ID/g; tissue uptake at 120 h (Fat uptake): 0.03 ± 0.03 %ID/g; tissue uptake at 1 h (Heart uptake): 3.6 ± 0.52 %ID/g; tissue uptake at 4 h (Heart uptake): 1.91 ± 0.4 %ID/g; tissue uptake at 24 h (Heart uptake): 0.26 ± 0.04 %ID/g; tissue uptake at 72 h (Heart uptake): 0.09 ± 0.03 %ID/g; tissue uptake at 120 h (Heart uptake): 0.04 ± 0.02 %ID/g; tissue uptake at 1 h (Intestine uptake): 1.19 ± 0.25 %ID/g; tissue uptake at 4 h (Intestine uptake): 0.61 ± 0.17 %ID/g; tissue uptake at 24 h (Intestine uptake): 0.18 ± 0.07 %ID/g; tissue uptake at 72 h (Intestine uptake): 0.14 ± 0.11 %ID/g; tissue uptake at 120 h (Intestine uptake): 0.04 ± 0.03 %ID/g; tissue uptake at 1 h (Kidneys uptake): 13.2 ± 1.87 %ID/g; tissue uptake at 4 h (Kidneys uptake): 9.23 ± 2.18 %ID/g; tissue uptake at 24 h (Kidneys uptake): 5.8 ± 1.24 %ID/g; tissue uptake at 72 h (Kidneys uptake): 2.56 ± 0.62 %ID/g; tissue uptake at 120 h (Kidneys uptake): 1.3 ± 0.55 %ID/g; tissue uptake at 1 h (Lacrimal uptake): 0.27 ± 0.08 %ID/g; tissue uptake at 4 h (Lacrimal uptake): 0.15 ± 0.07 %ID/g; tissue uptake at 24 h (Lacrimal uptake): 0.04 ± 0.03 %ID/g; tissue uptake at 72 h (Lacrimal uptake): 0.01 ± 0.01 %ID/g; tissue uptake at 1 h (Liver uptake): 2.67 ± 0.37 %ID/g; tissue uptake at 4 h (Liver uptake): 1.89 ± 0.69 %ID/g; tissue uptake at 24 h (Liver uptake): 0.69 ± 0.27 %ID/g; tissue uptake at 72 h (Liver uptake): 0.36 ± 0.13 %ID/g; tissue uptake at 120 h (Liver uptake): 0.23 ± 0.13 %ID/g; tissue uptake at 1 h (Lungs uptake): 8.06 ± 1.48 %ID/g; tissue uptake at 4 h (Lungs uptake): 4.35 ± 0.82 %ID/g; tissue uptake at 24 h (Lungs uptake): 0.72 ± 0.19 %ID/g; tissue uptake at 72 h (Lungs uptake): 0.18 ± 0.04 %ID/g; tissue uptake at 120 h (Lungs uptake): 0.06 ± 0.03 %ID/g; tissue uptake at 1 h (Muscle uptake): 1.15 ± 0.19 %ID/g; tissue uptake at 4 h (Muscle uptake): 0.58 ± 0.13 %ID/g; tissue uptake at 24 h (Muscle uptake): 0.08 ± 0.02 %ID/g; tissue uptake at 72 h (Muscle uptake): 0.02 ± 0.01 %ID/g; tissue uptake at 120 h (Muscle uptake): 0.01 ± 0.01 %ID/g; tissue uptake at 1 h (Pancreas uptake): 1.41 ± 0.31 %ID/g; tissue uptake at 4 h (Pancreas uptake): 0.74 ± 0.18 %ID/g; tissue uptake at 24 h (Pancreas uptake): 0.12 ± 0.03 %ID/g; tissue uptake at 72 h (Pancreas uptake): 0.04 ± 0.01 %ID/g; tissue uptake at 120 h (Pancreas uptake): 0.02 ± 0.02 %ID/g; tissue uptake at 1 h (Salivary uptake): 2.43 ± 0.33 %ID/g; tissue uptake at 4 h (Salivary uptake): 1.31 ± 0.3 %ID/g; tissue uptake at 24 h (Salivary uptake): 0.28 ± 0.04 %ID/g; tissue uptake at 72 h (Salivary uptake): 0.11 ± 0.03 %ID/g; tissue uptake at 120 h (Salivary uptake): 0.05 ± 0.04 %ID/g; tissue uptake at 1 h (Seminal uptake): 1.22 ± 0.4 %ID/g; tissue uptake at 4 h (Seminal uptake): 0.49 ± 0.1 %ID/g; tissue uptake at 24 h (Seminal uptake): 0.08 ± 0.02 %ID/g; tissue uptake at 72 h (Seminal uptake): 0.04 ± 0.01 %ID/g; tissue uptake at 120 h (Seminal uptake): 0.02 ± 0.01 %ID/g; tissue uptake at 1 h (Spleen uptake): 1.64 ± 0.83 %ID/g; tissue uptake at 4 h (Spleen uptake): 0.96 ± 0.29 %ID/g; tissue uptake at 24 h (Spleen uptake): 0.45 ± 0.1 %ID/g; tissue uptake at 72 h (Spleen uptake): 0.38 ± 0.15 %ID/g; tissue uptake at 120 h (Spleen uptake): 0.49 ± 0.38 %ID/g; tissue uptake at 1 h (Stomach uptake): 0.59 ± 0.12 %ID/g; tissue uptake at 4 h (Stomach uptake): 0.42 ± 0.15 %ID/g; tissue uptake at 24 h (Stomach uptake): 0.25 ± 0.13 %ID/g; tissue uptake at 72 h (Stomach uptake): 0.28 ± 0.33 %ID/g; tissue uptake at 120 h (Stomach uptake): 0.05 ± 0.08 %ID/g; tissue uptake at 1 h (Tail uptake): 6.11 ± 3.05 %ID/g; tissue uptake at 4 h (Tail uptake): 2.66 ± 0.9 %ID/g; tissue uptake at 24 h (Tail uptake): 0.31 ± 0.06 %ID/g; tissue uptake at 72 h (Tail uptake): 0.19 ± 0.12 %ID/g; tissue uptake at 120 h (Tail uptake): 0.08 ± 0.06 %ID/g; tissue uptake at 1 h (Testes uptake): 2.17 ± 0.32 %ID/g; tissue uptake at 4 h (Testes uptake): 1.83 ± 0.58 %ID/g; tissue uptake at 24 h (Testes uptake): 0.64 ± 0.53 %ID/g; tissue uptake at 72 h (Testes uptake): 0.24 ± 0.04 %ID/g; tissue uptake at 120 h (Testes uptake): 0.14 ± 0.06 %ID/g; tissue uptake at 1 h (Thyroid uptake): 2.9 ± 0.41 %ID/g; tissue uptake at 4 h (Thyroid uptake): 1.62 ± 0.42 %ID/g; tissue uptake at 24 h (Thyroid uptake): 0.37 ± 0.06 %ID/g; tissue uptake at 72 h (Thyroid uptake): 0.15 ± 0.01 %ID/g; tissue uptake at 120 h (Thyroid uptake): 0.08 ± 0.05 %ID/g; tissue uptake at 1 h (Tumor uptake): 27.2 ± 7.55 %ID/g; tissue uptake at 4 h (Tumor uptake): 47.6 ± 13.5 %ID/g; tissue uptake at 24 h (Tumor uptake): 57.2 ± 15.3 %ID/g; tissue uptake at 72 h (Tumor uptake): 59.3 ± 16 %ID/g; tissue uptake at 120 h (Tumor uptake): 61.9 ± 22.3 %ID/g
